Experimental findings from the DeepSol protein solubility set are described below.

This data set is described as follows: soluble on expression in E. coli; label from the status in PepcDB or PDB records.
For the sequence “MVAVERVESLAKSGIISIPKEYIRPKEELESINDVFLEEKKEDGPQVPTIDLKNIESDDEKIRENCIEELKKASLDWGVMHLINHGIPADLMERVKKAGEEFFSLSVEEKEKYANDQATGKIQGYGSKLANNASGQLEWEDYFFHLAYPEEKRDLSIWPKTPSDYIEATSEYAKCLRLLATKVFKALSVGLGLEPDRLEKEVGGLEELLLQMKINYYPKCPQPELALGVEAHTDVSALTFILHNMVPGLQLFYEGKWVTAKCVPDSIVMHIGDTLEILSNGKYKSILHRGLVNKEKVRISWAVFCEPPKDKIVLKPLPEMVSVESPAKFPPRTFAQHIEHKLFGKEQEELVSEKND”, the “soluble on expression in E. coli” value is on record as “soluble”. On to “MGSDKIHHHHHHMRIAAYENFITKLLMNNKCMDINEIDKYILRTTSNNYNLVKKQLDRTNKLLEERYERYGCLTEEDNVEALKKGYYDLGKIGLTLEEIRKKIAKFQIDKESPMGIQIEKDWNFATFLLQDLLQLENMNLITYSRLLEERLSELSKNKTNKKTYNKPNNKETTIKTNSPTTNSSDIMTIDEICALLHLSKSKIYHMACAHEIPHHKLNPSKKGRLYFFRSEIEEWLRNKRIRTVDEFLLQFEN”, for which the “soluble on expression in E. coli” value is given as “not soluble”. For “MSLNDLLVGLLLPEKENTRYEQFDYPFFKKKVGELTRDEGIVKYANAEASATKQADQMQQMIEDKVDVIVLDAVDAHAIADGVQKAKDAGIPVIAYDRLAEGPIDAYISFDNELVGEVQGRSLIEALGGDPESSAKIVMMNGSSTDPNAKQFKAGALSELNGKVTIAQSFDTKDWKPENAEANMTEAIEKIGKKKIAGVYSANDGMAGGVIKALEDAGVTDLPPITGQDAELAAVQRIVTGEQYMSVYKSYPQEAENAAEMAVARVQGRDIQFDALARDKVDSPTHKGIPAQLVPVVALTKANIEETVVAEGHHHHHH”, the “soluble on expression in E. coli” value was “soluble”.

For the sequence “MIAITGASGQLGRLVIAQLLEKVPASDIVALVRDVNKVADLSAKGVQVKAADYNQPEALAFALQGVDKVLLISSSEVGQRAAQHRNVIEAAVKAGVKLVAYTSLLHADKSPLALAEEHRQTEALLKDSGLPHVLLRNGWYTENYAASIPAALEHGVFIGSAGEGKITSATREDFAAAAVAVLTQEGQAGKVYELAGDEPYTLVELAAEISKQSGKSIGYQNLSGAEFTAALVSAGLPDVFAQIIADSDVGASKGGLFDGGKHLSQLIGRPTTPLSAVVKATLK”, the “soluble on expression in E. coli” value is “soluble”.

Regarding “GPGSMDTLTHLSHTLREAMSDIVPESHPEHPFNLIPELCRKFYDLGWATGTGGGISIKMGENYYIAPSGVQKERIKPNEIFVLNASQDVVEEPRTEKQLKISECTPLFFNAYRMRGAGACLHTHSANCVLISLLCDREFRISHIEMIKGIINNETKKALGFRDTLVIPIIENTDFERDLTASMAECMERYPESCAVLVRRHGMYVWSDTWQKAKGAVECIDYLMGLAIRMRTLGLEWEPKDVK”, the “soluble on expression in E. coli” value was “soluble”. Consider “MSLATKDPTAVERANLLNMAKLSIKGLIESALSFGRTLDSDYPPLQQFFVVMEHCLKHGLKGRKSFLSYNKTIWGPLELVEKLYPEAEEIGASVRDLPGLKTPLGRARAWLRLALMQKKMADYLRCLIIQRELLSEFYEYHALMMEEEGAVIVGLLVGLNVIDANLCVKGEDLDSQVGVIDFSMYLKNEEGHHHHHH”, for which the “soluble on expression in E. coli” value was “soluble”. As to “MGSDKIHHHHHHMEVSEFCLEGRFINFVIKDGYKLKGLMLGTHEGEFYIKLAKQLRAAFDLRLPPGTWLQVVGYKKHDLKDGTITLKAERVMAARSEMGRVQTTTPVQEPPSIHNVKVKPAKAKATILVCQKSDCMKRGGKAVCQALEAALSDRGLEDQVTIKGTGCMKNCKAGPNLVMPDKTRHSRIQAAQVPRLMDKHFGDKSLEAQPENLREVAITNGKLC”, the “soluble on expression in E. coli” value is recorded as “not soluble”.

As to “MSLQRPVMLLSDDDSEVRRLVYDSLDRLGCEMEEPDNGEQALAAFRRIQPEIVLLDLAMTQADAFELCASLHGARGGERVSILAVAGRGDLEGVRRAIDAGATDFLIHPVDVEMLGLRLSCGRRSAQTRERLSRNEERNRGLIKGIPHLVLQISKEGTVLDFEAPRDFDLRQFPDGLRGRRIQDVFFADAPYVIVRCIERVIETAESQVLEHNVRIGNDIHVYETRILPNAEGEPTVVMRDVTERRKMEKEGHHHHHH”, the “soluble on expression in E. coli” value is given as “soluble”. With “MNGFARRTEQKKQAIKQAVLELLQKIRDPREVTIQEIAKQAHVSPVTIYNYFGSKENLIRETLLDDVVRQVDEYEAFLKQAGSFEEKVKHTIFQEVKLFKEGWTDVMLRWMQEDEEFRRSIELLNETRVLPLVVDMIREAQKKGEVDPRLSIEALLLYLNGWRELSEKIPASLYNERLVEDMVRLFFYGIKGETR”, the “soluble on expression in E. coli” value is “not soluble”. As for “AHKKIFLVEDNKADIRLIQEALANSTVPHEVVTVRDGMEAMAYLRQEGEYANASRPDLILLDLNLPKKDGREVLAEIKSDPTLKRIPVVVLSTSINEDDIFHSYDLHVNCYITKSANLSQLFQIVKGIEEFWLSTATLPS”, the “soluble on expression in E. coli” value is listed as “soluble”. As to “GMDKLNEYRTKVRQLLTKHLQYKPSYGDVEVEQIFDEEHDHYQIISVGWNNQHRIYGPIMHLDIKNNKIWIQQNTTEADIALELMEMGIDKQDIVIGFHTPKMRQLSGFAVE”, the “soluble on expression in E. coli” value is “soluble”. With “MSEKLQKVLARAGHGSRREIESIIEAGRVSVDGKIAKLGDRVEVTPGLKIRIDGHLISVRESAEQICRVLAYYKPEGELCTRNDPEGRPTVFDRLPKLRGARWIAVGRLDVNTCGLLLFTTDGELANRLMHPSREVEREYAVRVFGQVDDAKLRDLSRGVQLEDGPAAFKTIKFSGGEGINQWYNVTLTEGRNREVRRLWEAVGVQVSRLIRVRYGDIPLPKGLPRGGWTELDLAQTNYLRELVELPPETSSKVAVEKDRRRMKANQIRRAVKRHSQVSGGRRSGGRNNNG”, the “soluble on expression in E. coli” value is reported as “soluble”. The value for “MDKIPDIMAKIKTMAPAIRSIDTRTVKVAPKVADAELQSAEYRQWRNAVYRRAGYRCEAIDNGRRCTKAAPAHRLFADHIVERRDGGALLDAANGQCLCGSHHTRKTVAARAARLSSRSRGGGSNLLEHHHHHH” was “soluble”; that for “MDRGTVFTFSPKGDIIELPVGATALDFAFMVHTQVGCKCVGAKVNGRMVTIDHKLKSGDKVEIITSKNSKGPSLEHHHHHH” was “not soluble”; that for “MAITEFDTSLPSIRQLQNLIKQAAPVEIKLVTGDAITGRVLWQDPTCVCIADENSRQTTIWKQAIAYLQPKG” was “soluble”.

Turning to “MLDTQTIAIVKSTIPLLAATGPKLTAHFYERMFKHHPELKNIFNMSNQSSGDQREALFNAICAYATNIENLAALLPTVERIAQKHTSLNIQPEHYPIVGEHLIATLDELFSPGQAVLDAWAKAYGVLADVFIQRESQIYQQSETETGGWRTLRRFRIIKKEQQSEVICSFVLAPEDGGQVLHYKPGQYLGIYIEHESLEFQEIRQYSLTTAPNGKTYRIAVKREEQGTVSNLLHRELNEGDIVRIAPPRGDFFLDVSPDTPVALISAGVGQTPMLSMLNTLYSQQHAAPVHWLHAAENGRVHAFADEVSAIAAKMPNLSRHVWYREPDLQDKHGEDYHSQGLMDLSSYQWLADDPKRHYYFCGPLPFMQFIGRQLLAQGIAPEQIHYECFGPHKVI”, the “soluble on expression in E. coli” value was “not soluble”. For the sequence “MHNMFPALTKTLSLQGYKIINSQTGSAAWSCGRRWFSSDKDDHDDVVTRIKIAPIKRTNEPLDKKRARLIYQSRKRGILETDLLLSGFAAKYLKKMNEEELEEYDSLLNELDWDIYYWATKNFKTSPLPDKWANSKLLKQLQEFSENKEKEILSMPDLSKYQ”, the “soluble on expression in E. coli” value is “soluble”. With “MLSEASSVQSPTVSIRRRTCVVCGSSTLNSYVTSFTRVPDKQEQWVTVLANGDAGFEDQLKASLATGRKYICYDHFDRQYFAQRKTDDGFELIRNRNPMAFKNATFIRHVDLRSTSSFVPDDSSEEPIPAKRLKIMSDLKGRGGELDPNSMTFLMKTIFLHVKKTMEEADEARRKHEIKEELD”, the “soluble on expression in E. coli” value was “not soluble”. “MHHLILGYGYCGYYLAQELLGHHQQVTVVSRQLKKELELSKLQHISHDLEYPFHWSEPDSIIYYLIPPPSQGTCDTFLQQFLNQSSLNAKKIIYFGSSGVYGNHQGAWVDELSACIIDSPRQQRRLDAEQQWLAYCQQHNKELSLLRIAGIYGPNRIPADAAKSKIPIIKPTEAPFTNHIFVKDLALIAYLLGQKQTTSAVYNVADGNPTHMGELQQTVANALGIESASYESFEQAWEKASPMKREFMRASKRLKIDLLKTALGEDIQFTSLYDAVKQSL”: the “soluble on expression in E. coli” value is “not soluble”. As to “MGSSHHHHHHGGTGENLYFQGGSGLRQFIVPVRQTTQRAGLATPPLFGVQKCYVNMNRSVQTRWEIDSQTASQKRTEYDFDKEQWMKQMRFASMDCIMDPDITPIRYTSVAGVKKAFRRFVTMRKLMDRRPDFDPVQLKELFIHFKTLSHEKSPDCFKTLQRITTHGEADRILKEIKGRMNEDFAKKSWRSLKQQGAKSTYEMEVDSFDLVTCYMGQMSQEDWLQITYRCEFRQRESKEYDWETMMEYPVFEVRLGDGVKAPNTHPFIVVGVLKKDGTRYGKDSQDAADLRKQFDRTGRWF”, the “soluble on expression in E. coli” value is reported as “not soluble”. The result for “GMSLIEIRKRTLIVETTYHENGPAPAQPLKLAASCAVIRNPYAGRYEPDLMPFMAELRSLGTLLATELVDTLGKDNIEVYSKAAIVGVDGEMEHGAVWHEAGGWAMRSVLGEPKAMVPAVKAVATAGYRMMVPVHYIHASYVRSHFNSIEIGIQDAPRPREILFALVMGTGARVHARLGGLTKEAVSVHDGQR” reads “soluble”. With “MAQNPNSFTDSVFGMIRNLLVSIRAGLFELTIKQPVTQNSLQRYQEEHREEKQQYLRQAILDLAEDSEEEDDGQPLDKETLSKMIAELTIERNNLRRSFNIVNEQRTGSKDRQHMEEEIRIQNWTKEDREELESGLAVMRQTIQESWKDAADCEQEKRSKNNQ”, the “soluble on expression in E. coli” value is listed as “not soluble”. As for “MRVAVDAMGGDNAPAVEVEGAVVAAREFGIPITLVGDTEKLRLELAKHNVQGLDIAIHHASEVVGMHDAASDAVRRKKDSSIRVAFDLVKSGEAEAVVSAGNSGATMAAGMFVLKRLKGIDRPAIAQIFPTLRGKTLVLDVGGNVDCKPIHLVQFAIMGEVYARHVIGVEQPRIGLLSNGEEDSKGNELTRETNAILKNISFDYEGYVEGRDIFNGMVDVVVCDGFVGNVVLKLSEGLAETVGKMLREEIASSLLSKLGYLFVRKAFKNFKKKVDYAEYGGAPLIGINGVAMICHGGSNVKAIKNAIHFAHEYVRKGVNQRLAEKMETEFTAYMQQFDAVKEAVAG”, the “soluble on expression in E. coli” value was “not soluble”. In the case of “MSEFFIQEQQLGKVTRTIVKDQAGRSLFLLVGRWGTRGDALSLYAMNGEILASIKQVSWTFGTRFELYQRFEKVGTLRKLFNLNADFYYVQGLHWAVVGDIKAHQYSIYQVHKKIMSMDKTMLCTGDYFVLTVANDEDAPLCICIAAVLDYWLYNKKKQKTSDDFGLDFDPLTD”, the “soluble on expression in E. coli” value is listed as “not soluble”.

Consider “MILKALPNESMPREKLLQRGPQALTDAELLAIFLRTGTQGMNVIELADFLIQDFGSLRQLFSASEQEFCQHKGLGQAKYVQLQAVLEMTQRYLAETLKRGDALTSPEQTKLYLSSILRDRQREAFYILFLDNQHRVIKDEILFEGTLDAASVYPREVVKRALHHNAAALILAHNHPSGVAEPSQADRRITRRLIDALALVDIRILDHFVIGDGESVSFAERGWI”, for which the “soluble on expression in E. coli” value was “not soluble”. With “MSLIQIENQTVSGIPFLHIVKEENRHRAVPLVIFIHGFTSAKEHNLHIAYLLAEKGFRAVLPEALHHGERGEEMAVEELAGHFWDIVLNEIEEIGVLKNHFEKEGLIDGGRIGLAGTSMGGITTLGALTAYDWIKAGVSLMGSPNYVELFQQQIDHIQSQGIEIDVPEEKVQQLMKRLELRDLSLQPEKLQQRPLLFWHGAKDKVVPYAPTRKFYDTIKSHYSEQPERLQFIGDENADHKVPRAAVLKTIEWFETYLEGGSHHHHHH”, the “soluble on expression in E. coli” value was “soluble”.
